According to US20110118447A1:
One block for each binder: values may come before it.

Columns and labels:
[1] = biological target: binding partner (antigen) of C5A (XPA23); assay: Biacore, K-off, fold vs original
[2] = biological target: binding partner of C5A (XPA23); assay: Biacore

B1: C5A (XPA23) VH P53I (antibody, V domains shown)
VH: EVQLLESGGGLVQPGGSLRLSCAASGFTFSKYFMFWVRQAPGKGLEWVSVISISGGMTRYADSVKGRFTISRDNSKNTLYLQMNSLRAEDTAVYYCARVGYGGNSDYWGQGTLVTVSS
VL: DIQMTQSPSSVSASVGDRLTIICRASQDINRWLAWYQQTPGNAPKLLIHSATSLQSGVPSRFSGSGSGTDFTLTINSLQPEDFATYYCQQADSFPLTFGGGTKVEIK
fold difference in affinity vs original [1]: 0.08 fold | fold difference in affinity vs original [2]: 0.08 fold

B5: C5A (XPA23) VH P53W (antibody, V domains shown)
VH: EVQLLESGGGLVQPGGSLRLSCAASGFTFSKYFMFWVRQAPGKGLEWVSVISWSGGMTRYADSVKGRFTISRDNSKNTLYLQMNSLRAEDTAVYYCARVGYGGNSDYWGQGTLVTVSS
VL: DIQMTQSPSSVSASVGDRLTIICRASQDINRWLAWYQQTPGNAPKLLIHSATSLQSGVPSRFSGSGSGTDFTLTINSLQPEDFATYYCQQADSFPLTFGGGTKVEIK
fold difference in affinity vs original [1]: 0.05 fold | fold affinity vs original [2]: 0.05 fold

B8: C5A (XPA23) VH G56W (antibody, V domains shown)
VH: EVQLLESGGGLVQPGGSLRLSCAASGFTFSKYFMFWVRQAPGKGLEWVSVISPSGWMTRYADSVKGRFTISRDNSKNTLYLQMNSLRAEDTAVYYCARVGYGGNSDYWGQGTLVTVSS
VL: DIQMTQSPSSVSASVGDRLTIICRASQDINRWLAWYQQTPGNAPKLLIHSATSLQSGVPSRFSGSGSGTDFTLTINSLQPEDFATYYCQQADSFPLTFGGGTKVEIK
fold difference in affinity vs original [1]: 1.51 fold | fold affinity vs original [2]: 1.51 fold

B9: C5A (XPA23) VH S54W (antibody, V domains shown)
VH: EVQLLESGGGLVQPGGSLRLSCAASGFTFSKYFMFWVRQAPGKGLEWVSVISPWGGMTRYADSVKGRFTISRDNSKNTLYLQMNSLRAEDTAVYYCARVGYGGNSDYWGQGTLVTVSS
VL: DIQMTQSPSSVSASVGDRLTIICRASQDINRWLAWYQQTPGNAPKLLIHSATSLQSGVPSRFSGSGSGTDFTLTINSLQPEDFATYYCQQADSFPLTFGGGTKVEIK
fold difference in affinity vs original [1]: 1.07 fold | fold affinity vs original [2]: 1.07 fold

B10: C5A (XPA23) VH G56F (antibody, V domains shown)
VH: EVQLLESGGGLVQPGGSLRLSCAASGFTFSKYFMFWVRQAPGKGLEWVSVISPSGFMTRYADSVKGRFTISRDNSKNTLYLQMNSLRAEDTAVYYCARVGYGGNSDYWGQGTLVTVSS
VL: DIQMTQSPSSVSASVGDRLTIICRASQDINRWLAWYQQTPGNAPKLLIHSATSLQSGVPSRFSGSGSGTDFTLTINSLQPEDFATYYCQQADSFPLTFGGGTKVEIK
fold difference in affinity vs original [1]: 1.41 fold | fold affinity vs original [2]: 1.41 fold

B11: C5A (XPA23) VH S54F (antibody, V domains shown)
VH: EVQLLESGGGLVQPGGSLRLSCAASGFTFSKYFMFWVRQAPGKGLEWVSVISPFGGMTRYADSVKGRFTISRDNSKNTLYLQMNSLRAEDTAVYYCARVGYGGNSDYWGQGTLVTVSS
VL: DIQMTQSPSSVSASVGDRLTIICRASQDINRWLAWYQQTPGNAPKLLIHSATSLQSGVPSRFSGSGSGTDFTLTINSLQPEDFATYYCQQADSFPLTFGGGTKVEIK
fold difference in affinity vs original [1]: 0.87 fold | fold affinity vs original [2]: 0.87 fold

B12: C5A (XPA23) VH S54L (antibody, V domains shown)
VH: EVQLLESGGGLVQPGGSLRLSCAASGFTFSKYFMFWVRQAPGKGLEWVSVISPLGGMTRYADSVKGRFTISRDNSKNTLYLQMNSLRAEDTAVYYCARVGYGGNSDYWGQGTLVTVSS
VL: DIQMTQSPSSVSASVGDRLTIICRASQDINRWLAWYQQTPGNAPKLLIHSATSLQSGVPSRFSGSGSGTDFTLTINSLQPEDFATYYCQQADSFPLTFGGGTKVEIK
fold difference in affinity vs original [1]: 0.91 fold | fold difference in affinity vs original [2]: 0.91 fold

B13: C5A (XPA23) VH P53F (antibody, V domains shown)
VH: EVQLLESGGGLVQPGGSLRLSCAASGFTFSKYFMFWVRQAPGKGLEWVSVISFSGGMTRYADSVKGRFTISRDNSKNTLYLQMNSLRAEDTAVYYCARVGYGGNSDYWGQGTLVTVSS
VL: DIQMTQSPSSVSASVGDRLTIICRASQDINRWLAWYQQTPGNAPKLLIHSATSLQSGVPSRFSGSGSGTDFTLTINSLQPEDFATYYCQQADSFPLTFGGGTKVEIK
fold difference in affinity vs original [1]: 0.05 fold | fold affinity vs original [2]: 0.05 fold

B14: C5A (XPA23) VH S54P (antibody, V domains shown)
VH: EVQLLESGGGLVQPGGSLRLSCAASGFTFSKYFMFWVRQAPGKGLEWVSVISPPGGMTRYADSVKGRFTISRDNSKNTLYLQMNSLRAEDTAVYYCARVGYGGNSDYWGQGTLVTVSS
VL: DIQMTQSPSSVSASVGDRLTIICRASQDINRWLAWYQQTPGNAPKLLIHSATSLQSGVPSRFSGSGSGTDFTLTINSLQPEDFATYYCQQADSFPLTFGGGTKVEIK
fold difference in affinity vs original [1]: 0.06 fold | fold difference in affinity vs original [2]: 0.06 fold

B16: C5A (XPA23) VH P53L (antibody, V domains shown)
VH: EVQLLESGGGLVQPGGSLRLSCAASGFTFSKYFMFWVRQAPGKGLEWVSVISLSGGMTRYADSVKGRFTISRDNSKNTLYLQMNSLRAEDTAVYYCARVGYGGNSDYWGQGTLVTVSS
VL: DIQMTQSPSSVSASVGDRLTIICRASQDINRWLAWYQQTPGNAPKLLIHSATSLQSGVPSRFSGSGSGTDFTLTINSLQPEDFATYYCQQADSFPLTFGGGTKVEIK
fold difference in affinity vs original [1]: 0.04 fold | fold difference in affinity vs original [2]: 0.04 fold

B17: C5A (XPA23) VH G56A (antibody, V domains shown)
VH: EVQLLESGGGLVQPGGSLRLSCAASGFTFSKYFMFWVRQAPGKGLEWVSVISPSGAMTRYADSVKGRFTISRDNSKNTLYLQMNSLRAEDTAVYYCARVGYGGNSDYWGQGTLVTVSS
VL: DIQMTQSPSSVSASVGDRLTIICRASQDINRWLAWYQQTPGNAPKLLIHSATSLQSGVPSRFSGSGSGTDFTLTINSLQPEDFATYYCQQADSFPLTFGGGTKVEIK
fold difference in affinity vs original [1]: 1.21 fold | fold difference in affinity vs original [2]: 1.21 fold

B18: C5A (XPA23) VH G56L (antibody, V domains shown)
VH: EVQLLESGGGLVQPGGSLRLSCAASGFTFSKYFMFWVRQAPGKGLEWVSVISPSGLMTRYADSVKGRFTISRDNSKNTLYLQMNSLRAEDTAVYYCARVGYGGNSDYWGQGTLVTVSS
VL: DIQMTQSPSSVSASVGDRLTIICRASQDINRWLAWYQQTPGNAPKLLIHSATSLQSGVPSRFSGSGSGTDFTLTINSLQPEDFATYYCQQADSFPLTFGGGTKVEIK
fold difference in affinity vs original [1]: 1.41 fold | fold difference in affinity vs original [2]: 1.41 fold

B19: C5A (XPA23) VH S54G (antibody, V domains shown)
VH: EVQLLESGGGLVQPGGSLRLSCAASGFTFSKYFMFWVRQAPGKGLEWVSVISPGGGMTRYADSVKGRFTISRDNSKNTLYLQMNSLRAEDTAVYYCARVGYGGNSDYWGQGTLVTVSS
VL: DIQMTQSPSSVSASVGDRLTIICRASQDINRWLAWYQQTPGNAPKLLIHSATSLQSGVPSRFSGSGSGTDFTLTINSLQPEDFATYYCQQADSFPLTFGGGTKVEIK
fold difference in affinity vs original [1]: 1.43 fold | fold difference in affinity vs original [2]: 1.43 fold

B20: C5A (XPA23) VH G55L (antibody, V domains shown)
VH: EVQLLESGGGLVQPGGSLRLSCAASGFTFSKYFMFWVRQAPGKGLEWVSVISPSLGMTRYADSVKGRFTISRDNSKNTLYLQMNSLRAEDTAVYYCARVGYGGNSDYWGQGTLVTVSS
VL: DIQMTQSPSSVSASVGDRLTIICRASQDINRWLAWYQQTPGNAPKLLIHSATSLQSGVPSRFSGSGSGTDFTLTINSLQPEDFATYYCQQADSFPLTFGGGTKVEIK
fold difference in affinity vs original [1]: 0.08 fold | fold difference in affinity vs original [2]: 0.08 fold

Second part, the binder after the results:

fold difference in affinity vs original [1]: 0.86 fold | fold difference in affinity vs original [2]: 0.86 fold
B2: C5A (XPA23) VH S54I (antibody, V domains shown)
VH: EVQLLESGGGLVQPGGSLRLSCAASGFTFSKYFMFWVRQAPGKGLEWVSVISPIGGMTRYADSVKGRFTISRDNSKNTLYLQMNSLRAEDTAVYYCARVGYGGNSDYWGQGTLVTVSS
VL: DIQMTQSPSSVSASVGDRLTIICRASQDINRWLAWYQQTPGNAPKLLIHSATSLQSGVPSRFSGSGSGTDFTLTINSLQPEDFATYYCQQADSFPLTFGGGTKVEIK

fold difference in affinity vs original [1]: 0.85 fold | fold difference in affinity vs original [2]: 0.85 fold
B3: C5A (XPA23) VH G56P (antibody, V domains shown)
VH: EVQLLESGGGLVQPGGSLRLSCAASGFTFSKYFMFWVRQAPGKGLEWVSVISPSGPMTRYADSVKGRFTISRDNSKNTLYLQMNSLRAEDTAVYYCARVGYGGNSDYWGQGTLVTVSS
VL: DIQMTQSPSSVSASVGDRLTIICRASQDINRWLAWYQQTPGNAPKLLIHSATSLQSGVPSRFSGSGSGTDFTLTINSLQPEDFATYYCQQADSFPLTFGGGTKVEIK

fold difference in affinity vs original [1]: 1.71 fold | fold difference in affinity vs original [2]: 1.71 fold
B4: C5A (XPA23) VH G56I (antibody, V domains shown)
VH: EVQLLESGGGLVQPGGSLRLSCAASGFTFSKYFMFWVRQAPGKGLEWVSVISPSGIMTRYADSVKGRFTISRDNSKNTLYLQMNSLRAEDTAVYYCARVGYGGNSDYWGQGTLVTVSS
VL: DIQMTQSPSSVSASVGDRLTIICRASQDINRWLAWYQQTPGNAPKLLIHSATSLQSGVPSRFSGSGSGTDFTLTINSLQPEDFATYYCQQADSFPLTFGGGTKVEIK

fold difference in affinity vs original [1]: 1 fold | fold difference in affinity vs original [2]: 1 fold
B6: C5A (XPA23) VH S54V (antibody, V domains shown)
VH: EVQLLESGGGLVQPGGSLRLSCAASGFTFSKYFMFWVRQAPGKGLEWVSVISPVGGMTRYADSVKGRFTISRDNSKNTLYLQMNSLRAEDTAVYYCARVGYGGNSDYWGQGTLVTVSS
VL: DIQMTQSPSSVSASVGDRLTIICRASQDINRWLAWYQQTPGNAPKLLIHSATSLQSGVPSRFSGSGSGTDFTLTINSLQPEDFATYYCQQADSFPLTFGGGTKVEIK

fold difference in affinity vs original [1]: 0.86 fold | fold difference in affinity vs original [2]: 0.86 fold
B7: C5A (XPA23) VH G55I (antibody, V domains shown)
VH: EVQLLESGGGLVQPGGSLRLSCAASGFTFSKYFMFWVRQAPGKGLEWVSVISPSIGMTRYADSVKGRFTISRDNSKNTLYLQMNSLRAEDTAVYYCARVGYGGNSDYWGQGTLVTVSS
VL: DIQMTQSPSSVSASVGDRLTIICRASQDINRWLAWYQQTPGNAPKLLIHSATSLQSGVPSRFSGSGSGTDFTLTINSLQPEDFATYYCQQADSFPLTFGGGTKVEIK

fold difference in affinity vs original [1]: 1 fold | fold difference in affinity vs original [2]: 1 fold
B15: C5A (XPA23) VH S54A (antibody, V domains shown)
VH: EVQLLESGGGLVQPGGSLRLSCAASGFTFSKYFMFWVRQAPGKGLEWVSVISPAGGMTRYADSVKGRFTISRDNSKNTLYLQMNSLRAEDTAVYYCARVGYGGNSDYWGQGTLVTVSS
VL: DIQMTQSPSSVSASVGDRLTIICRASQDINRWLAWYQQTPGNAPKLLIHSATSLQSGVPSRFSGSGSGTDFTLTINSLQPEDFATYYCQQADSFPLTFGGGTKVEIK
